In US20200291112A1 (Memorial Sloan Kettering, published 2020):

T1: Human GPA33 (Novoprotein), recombinant protein immobilized on CM5 chips (human, UniProt Q99795 22-235)
T1 construct: also called GPA33 recombinant protein; Human Glycoprotein A33
T1 sequence: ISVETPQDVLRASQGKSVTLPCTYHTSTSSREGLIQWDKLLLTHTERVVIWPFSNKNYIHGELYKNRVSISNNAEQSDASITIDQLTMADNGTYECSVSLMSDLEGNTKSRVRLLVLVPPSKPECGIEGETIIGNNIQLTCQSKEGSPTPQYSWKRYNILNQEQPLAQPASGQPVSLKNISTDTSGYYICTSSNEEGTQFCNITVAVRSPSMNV


How the values were obtained:
[1] = biological target: T1, Human GPA33 (Novoprotein), recombinant …; assay: SPR, KD of the parental huA33-BsAb over KD of the clone
Method: (§1) SPR analysis. Human GPA33 (Novoprotein, Summit, N.J.) was immobilized on CM5 chips. Five concentrations of 2-fold serially diluted huA33 IgG1 or huA33-BsAbs (starting at 20 nM) were flowed over the chip using a Biacore™ T100 system (GE Healthcare, Chicago, Ill.). Binding kinetics of huA33 were measured at 25° C. and binding kinetics of huA33-BsAbs were measured at both 25° C. and 37° C. The sensorgrams were fitted with 1:1 binding model for both to derive kinetic parameters.

[2] = biological target: T1, Human GPA33 (Novoprotein), recombinant …; assay: SPR, GPA33 immobilized on CM5 chip, clone in huA33-BsAb format; temperature not given for this table; the KD column head prints no unit
[3] = biological target: T1, Human GPA33 (Novoprotein), recombinant …; assay: SPR (Biacore T100), GPA33 recombinant protein immobilized on CM5 chip, IgG1 flowed over, 25 °C, 1:1 binding model
Method: as §1

| Binder | Fold difference/Parental [1] [fold] | Kd [2] [nM] | Kd [3] [nM] | koff [3] [s⁻¹] | kon [3] [M⁻¹ s⁻¹] |
| --- | --- | --- | --- | --- | --- |
| affinity-matured clone 31 in huA33-BsAb format (bispecific antibody, human IgG1, kappa, N297A) heavy: not shown light: DIQMTQSQSSLSTSVGDRVTITCKASQNVRTVVAWYQQKPGKSPKTLIYLASNRHTGVPSRFSGSGSGTEFTLTISNVQPEDFADYFCLQHWSYPLTFGSGTKLEIKRTVAAPSVFIFPPSDEQLKSGTASVVCLLNNFYPREAKVQWKVDNALQSGNSQESVTEQDSKDSTYSLSSTLTLSKADYEKHKVYACEVTHQGLSSPVTKSFNRGECTSGGGGSGGGGSGGGGSQVQLVQSGGGVVQPGRSLRLSCKASGYTFTRYTMHWVRQAPGKCLEWIGYINPSRGYTNYNQKFKDRFTISRDNSKNTAFLQMDSLRPEDTGVYFCARYYDDHYSLDYWGQGTPVTVSSGGGGSGGGGSGGGGSGGGGSGGGGSGGGGSDIQMTQSPSSLSASVGDRVTITCSASSSVSYMNWYQQTPGKAPKRWIYDTSKLASGVPSRFSGSGSGTDYTFTISSLQPEDIATYYCQQWSSNPFTFGCGTKLQITR | 4.3 | 0.0387 |  |  |  |
| affinity-matured clone 53 in huA33-BsAb format (bispecific antibody, human IgG1, kappa, N297A) heavy: not shown light: DIQMTQSQSSLSTSVGDRVTITCKASQNVRTVVAWYQQKPGKSPKTLIYLASNRHTGVPSRFSGSGSGTEFTLTISNVQPEDFADYFCLQYWSYPLTFGSGTKLEIKRTVAAPSVFIFPPSDEQLKSGTASVVCLLNNFYPREAKVQWKVDNALQSGNSQESVTEQDSKDSTYSLSSTLTLSKADYEKHKVYACEVTHQGLSSPVTKSFNRGECTSGGGGSGGGGSGGGGSQVQLVQSGGGVVQPGRSLRLSCKASGYTFTRYTMHWVRQAPGKCLEWIGYINPSRGYTNYNQKFKDRFTISRDNSKNTAFLQMDSLRPEDTGVYFCARYYDDHYSLDYWGQGTPVTVSSGGGGSGGGGSGGGGSGGGGSGGGGSGGGGSDIQMTQSPSSLSASVGDRVTITCSASSSVSYMNWYQQTPGKAPKRWIYDTSKLASGVPSRFSGSGSGTDYTFTISSLQPEDIATYYCQQWSSNPFTFGCGTKLQITR | 9.6 | 0.0175 |  |  |  |
| affinity-matured clone 32 in huA33-BsAb format (bispecific antibody, human IgG1, kappa, N297A) heavy: not shown light: DIQMTQSQSSLSTSVGDRVTITCKASQNVRTVVAWYQQKPGKSPKTLIYLASNRHTGVPSRFSGSGSGTEFTLTISNVQPEDFADYFCLQYWSYPLTFGSGTKLEIKRTVAAPSVFIFPPSDEQLKSGTASVVCLLNNFYPREAKVQWKVDNALQSGNSQESVTEQDSKDSTYSLSSTLTLSKADYEKHKVYACEVTHQGLSSPVTKSFNRGECTSGGGGSGGGGSGGGGSQVQLVQSGGGVVQPGRSLRLSCKASGYTFTRYTMHWVRQAPGKCLEWIGYINPSRGYTNYNQKFKDRFTISRDNSKNTAFLQMDSLRPEDTGVYFCARYYDDHYSLDYWGQGTPVTVSSGGGGSGGGGSGGGGSGGGGSGGGGSGGGGSDIQMTQSPSSLSASVGDRVTITCSASSSVSYMNWYQQTPGKAPKRWIYDTSKLASGVPSRFSGSGSGTDYTFTISSLQPEDIATYYCQQWSSNPFTFGCGTKLQITR | 29.7 | 0.00564 |  |  |  |
| affinity-matured clone 56 in huA33-BsAb format (bispecific antibody, human IgG1, kappa, N297A) heavy: not shown light: DIQMTQSQSSLSTSVGDRVTITCKASQNVRTLVAWYQQKPGKSPKTLIYLASNRHTGVPSRFSGSGSGTEFTLTISNVQPEDFADYFCLQYWSYPLTFGSGTKLEIKRTVAAPSVFIFPPSDEQLKSGTASVVCLLNNFYPREAKVQWKVDNALQSGNSQESVTEQDSKDSTYSLSSTLTLSKADYEKHKVYACEVTHQGLSSPVTKSFNRGECTSGGGGSGGGGSGGGGSQVQLVQSGGGVVQPGRSLRLSCKASGYTFTRYTMHWVRQAPGKCLEWIGYINPSRGYTNYNQKFKDRFTISRDNSKNTAFLQMDSLRPEDTGVYFCARYYDDHYSLDYWGQGTPVTVSSGGGGSGGGGSGGGGSGGGGSGGGGSGGGGSDIQMTQSPSSLSASVGDRVTITCSASSSVSYMNWYQQTPGKAPKRWIYDTSKLASGVPSRFSGSGSGTDYTFTISSLQPEDIATYYCQQWSSNPFTFGCGTKLQITR | 6.9 | 0.0243 |  |  |  |
| affinity-matured clone 48 in huA33-BsAb format (bispecific antibody, human IgG1, kappa, N297A) heavy: not shown light: DIQMTQSQSSLSTSVGDRVTITCKASQNVRTVVAWYQQKPGKSPKTLIYLASDRHTGVPSRFSGSGSGTEFTLTISNVQPEDFADYFCLQYWSYPLTFGSGTKLEIKRTVAAPSVFIFPPSDEQLKSGTASVVCLLNNFYPREAKVQWKVDNALQSGNSQESVTEQDSKDSTYSLSSTLTLSKADYEKHKVYACEVTHQGLSSPVTKSFNRGECTSGGGGSGGGGSGGGGSQVQLVQSGGGVVQPGRSLRLSCKASGYTFTRYTMHWVRQAPGKCLEWIGYINPSRGYTNYNQKFKDRFTISRDNSKNTAFLQMDSLRPEDTGVYFCARYYDDHYSLDYWGQGTPVTVSSGGGGSGGGGSGGGGSGGGGSGGGGSGGGGSDIQMTQSPSSLSASVGDRVTITCSASSSVSYMNWYQQTPGKAPKRWIYDTSKLASGVPSRFSGSGSGTDYTFTISSLQPEDIATYYCQQWSSNPFTFGCGTKLQITR | 51 | 0.00329 |  |  |  |
| affinity-matured clone 57 in huA33-BsAb format (bispecific antibody, human IgG1, kappa, N297A) heavy: not shown light: DIQMTQSQSSLSTSVGDSVTITCKASQNVRTVVAWYQQKPGKSPKTLIYLASNRHTGVPSRFSGSGSGTEFTLTISNVQPEDVADYFCLQYWSYPLTFGSGTKLEIKRTVAAPSVFIFPPSDEQLKSGTASVVCLLNNFYPREAKVQWKVDNALQSGNSQESVTEQDSKDSTYSLSSTLTLSKADYEKHKVYACEVTHQGLSSPVTKSFNRGECTSGGGGSGGGGSGGGGSQVQLVQSGGGVVQPGRSLRLSCKASGYTFTRYTMHWVRQAPGKCLEWIGYINPSRGYTNYNQKFKDRFTISRDNSKNTAFLQMDSLRPEDTGVYFCARYYDDHYSLDYWGQGTPVTVSSGGGGSGGGGSGGGGSGGGGSGGGGSGGGGSDIQMTQSPSSLSASVGDRVTITCSASSSVSYMNWYQQTPGKAPKRWIYDTSKLASGVPSRFSGSGSGTDYTFTISSLQPEDIATYYCQQWSSNPFTFGCGTKLQITR | 10.7 | 0.0156 |  |  |  |
| affinity-matured clone 49 in huA33-BsAb format (bispecific antibody, human IgG1, kappa, N297A) heavy: not shown light: DIQMTQSQSSLSTSVGDRVTITCKASQNVRTLVAWYQQKPGKSPKTLIYLASNRHTGVPSRFSGSGSGTEFTLTISNVQPEDFADYFCLQHWSYPLTFGSGTKLEIKRTVAAPSVFIFPPSDEQLKSGTASVVCLLNNFYPREAKVQWKVDNALQSGNSQESVTEQDSKDSTYSLSSTLTLSKADYEKHKVYACEVTHQGLSSPVTKSFNRGECTSGGGGSGGGGSGGGGSQVQLVQSGGGVVQPGRSLRLSCKASGYTFTRYTMHWVRQAPGKCLEWIGYINPSRGYTNYNQKFKDRFTISRDNSKNTAFLQMDSLRPEDTGVYFCARYYDDHYSLDYWGQGTPVTVSSGGGGSGGGGSGGGGSGGGGSGGGGSGGGGSDIQMTQSPSSLSASVGDRVTITCSASSSVSYMNWYQQTPGKAPKRWIYDTSKLASGVPSRFSGSGSGTDYTFTISSLQPEDIATYYCQQWSSNPFTFGCGTKLQITR | 7.6 | 0.022 |  |  |  |
| chimeric chA33-IgG1 (antibody, V domains shown, Chimeric antibody with murine A33 variable domains and a human IgG1 constant region; also called chimeric A33; 3A3-chA33) VH: EVKLVESGGGLVKPGGSLKLSCAASGFAFSTYDMSWVRQTPEKRLEWVATISSGGSYTYYLDSVKGRFTISRDSARNTLYLQMSSLRSEDTALYYCAPTTVVPFAYWGQGTLVTVSA VL: DIVMTQSQKFMSTSVGDRVSITCKASQNVRTVVAWYQQKPGQSPKTLIYLASNRHTGVPDRFTGSGSGTDFTLTISNVQSEDLADYFCLQHWSYPLTFGSGTKLEVKR |  |  | 0.31 | 0.000628 | 2.03e+06 |
